Test results taken from US20130330346A1 (Novartis, published 2013).
Where two headings read alike, the source gives them in different places. Ends that are not written are not given here.

T1: Cynomolgus CXCR2 (cynomolgus, UniProt Q28519 3-353 (rhesus entry))
T1 chain: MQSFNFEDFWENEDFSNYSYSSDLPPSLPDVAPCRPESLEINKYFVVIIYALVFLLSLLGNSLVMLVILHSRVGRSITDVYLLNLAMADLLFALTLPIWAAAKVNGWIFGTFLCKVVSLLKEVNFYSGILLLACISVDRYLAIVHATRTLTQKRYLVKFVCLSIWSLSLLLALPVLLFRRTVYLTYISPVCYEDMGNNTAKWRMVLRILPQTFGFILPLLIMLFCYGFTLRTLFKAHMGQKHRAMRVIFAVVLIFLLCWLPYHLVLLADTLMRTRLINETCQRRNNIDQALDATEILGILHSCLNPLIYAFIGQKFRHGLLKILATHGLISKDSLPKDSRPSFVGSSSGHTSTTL

T2: Human CXCR2 (human, UniProt P25025 1-360)
T2 sequence: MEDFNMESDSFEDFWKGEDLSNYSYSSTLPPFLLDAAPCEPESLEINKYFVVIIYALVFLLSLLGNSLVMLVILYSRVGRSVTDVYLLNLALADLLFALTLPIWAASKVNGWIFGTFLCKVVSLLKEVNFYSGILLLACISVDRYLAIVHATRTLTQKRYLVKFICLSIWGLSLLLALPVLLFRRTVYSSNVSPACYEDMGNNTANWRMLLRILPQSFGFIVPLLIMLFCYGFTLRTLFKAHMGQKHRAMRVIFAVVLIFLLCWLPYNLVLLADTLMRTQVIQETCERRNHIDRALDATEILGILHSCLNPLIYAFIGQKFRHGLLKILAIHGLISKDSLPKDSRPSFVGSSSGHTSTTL

T3: Human 1to19 peptide (human)
T3 construct: First 19 N-terminal amino acids of human CXCR2, captured on neutravidin; also called human CXCR2 1 to19 peptide; 1-19 Nter peptide
T3 peptide: MEDFNMESDSFEDFWKGED-biotin


Columns and labels:
Cynomolgus CXCR2 [1] = biological target: T1, Cynomolgus CXCR2; assay: cell-based or functional assay
Human CXCR2 [2] = biological target: T2, Human CXCR2; assay: cell-based or functional assay
Human CXCR2 [3] = biological target: T2, Human CXCR2; assay: FACS, periplasmic extract vs FMAT Blue Gro-α
Method: Periplasmic extracts (as described above) were analyzed on FACS for competition with Gro-α in binding to human CXCR2. 2×10⁵ cells were incubated with a ½ dilution of periplasmic extracts in FACS buffer (PBS+10% fetal bovine serum (Sigma, F7524)) for 30 minutes at 4° C. Then, an equal volume of 6 nM of FMAT Blue-labeled human Gro-α in FACS buffer was added and incubation was continued for another 30 minutes at 4° C. in the dark. Cells were then washed three times in FACS buffer and finally resuspended in FACS buffer. Dead cells were stained with propidium iodide (Sigma, P4170). Samples were then analyzed on a FACSarray (BD Biosciences).

Cynomolgus CXCR2 [4] = biological target: T1, Cynomolgus CXCR2; assay: cell-based or functional assay
Human CXCR2 [5] = biological target: T2, Human CXCR2; assay: cell-based or functional assay; remark: listed apart in the source
Cynomolgus CXCR2 [6] = biological target: T1, Cynomolgus CXCR2; assay: FACS hGro-α competition
Human CXCR2 [7] = biological target: T2, Human CXCR2; assay: FACS hGro-α competition
Cynomolgus CXCR2 [8] = biological target: T1, Cynomolgus CXCR2; assay: cell-based or functional assay
Human CXCR2 [9] = biological target: T2, Human CXCR2; assay: cell-based or functional assay; remark: listed apart in the source
Human 1to19 peptide = biological target: T3, Human 1to19 peptide; assay: ELISA, periplasmic extract on biotinylated peptide
Method: In another setup, periplasmic extracts were analyzed for binding to human 1 to 19 peptide by ELISA. MaxiSorb plates (Nunc, 430341) were coated for two hours with neutravidin followed by one hour blocking (PBS, 1% casein). Then 100 nM biotinylated human 1 to 19 peptide was added to these plates for one hour (PBS, 0.1% casein, 0.05% tween20) followed by one hour incubation with 10-fold dilutions of periplasmic extracts. Unbound periplasmic extracts were washed away (PBS supplemented with 0.05% tween20) and bound Nanobodies were detected using mouse anti-myc (Roche, 11667149001) followed by rabbit anti-mouse-HRP conjugate (Dakocytomation, P0260). Table 8 summarizes the ratios of the binding signals of anti-CXCR2Nanobodies over an irrelevant control Nanobody.

Cynomolgus CXCR2 [10] = biological target: T1, Cynomolgus CXCR2; assay: FACS competition vs 3 nM FMAT-Blue Gro-α
Method: (§1) Purified monovalent anti-CXCR2Nanobodies were titrated against 3 nM FMAT-Blue-labeled Gro-α in the FACS ligand competition assay on human and cynomolgus CXCR2 (Table 10). On human CXCR2, blocking potencies range between double digit nM and sub-nM whereas on cynomolgus CXCR2, they range between single and double digit nM.

Human CXCR2 [11] = biological target: T2, Human CXCR2; assay: FACS competition vs 3 nM FMAT-Blue Gro-α
Method: as §1

Cynomolgus CXCR2 [12] = biological target: T1, Cynomolgus CXCR2; assay: FACS hGro-α competition
Human CXCR2 [13] = biological target: T2, Human CXCR2; assay: FACS hGro-α competition; remark: listed apart in the source
Human CXCR2 [14] = biological target: T2, Human CXCR2; assay: cell-based or functional assay; remark: listed apart in the source
Cynomolgus CXCR2 [15] = biological target: T1, Cynomolgus CXCR2; assay: cell-based or functional assay
Human CXCR2 [16] = biological target: T2, Human CXCR2; assay: cell-based or functional assay; remark: listed apart in the source
Cynomolgus CXCR2 [17] = biological target: T1, Cynomolgus CXCR2; assay: FACS hGro-α competition
Human CXCR2 [18] = biological target: T2, Human CXCR2; assay: FACS hGro-α competition; remark: listed apart in the source
Cynomolgus CXCR2 [19] = biological target: T1, Cynomolgus CXCR2; assay: cell-based or functional assay
Human CXCR2 [20] = biological target: T2, Human CXCR2; assay: cell-based or functional assay; remark: listed apart in the source
Cynomolgus CXCR2 [21] = biological target: T1, Cynomolgus CXCR2; assay: cell-based or functional assay
Human CXCR2 [22] = biological target: T2, Human CXCR2; assay: cell-based or functional assay; remark: listed apart in the source
Cynomolgus CXCR2 [23] = biological target: T1, Cynomolgus CXCR2; assay: FACS hGro-α competition
Human CXCR2 [24] = biological target: T2, Human CXCR2; assay: FACS hGro-α competition; remark: listed apart in the source

Binder | FLIPR % inhibition max (Cynomolgus CXCR2 [1]) [%] | FLIPR IC50 (GRO-α induced calcium release) (Cynomolgus CXCR2 [1]) [nM] | FLIPR % inhibition max (Human CXCR2 [2]) [%] | FLIPR IC50 (GRO-α induced calcium release) (Human CXCR2 [2]) [nM] | [35S]GTPγS % inhibition max (GRO-α) (Human CXCR2 [2]) [%] | [35S]GTPγS IC50 (GRO-α) (Human CXCR2 [2]) [nM] | FACS Gro-α competition (% inhibition) (Human CXCR2 [3]) [%] | Cynomologus WBSC IC50 (rhGROα) (Cynomolgus CXCR2 [4]) [nM] | Human Chemotaxis IC50 (GROα) (Human CXCR2 [5]) [nM] | Human WBSC IC50 (rhGROα) (Human CXCR2 [5]) [nM] | ratio of binding signal relative to blank control (Human 1to19 peptide) [ratio] | % inhibition of max (Cynomolgus CXCR2 [10]) [%] | IC50 (Cynomolgus CXCR2 [10]) [nM] | % inhibition of max (Human CXCR2 [11]) [%] | IC50 (Human CXCR2 [11]) [nM] | FLIPR hGro-α IC50 (Cynomolgus CXCR2 [21]) [nM] | FLIPR hGro-α IC50 (Human CXCR2 [22]) [nM] | IC50 (Cynomolgus CXCR2 [23]) [nM] | IC50 (Human CXCR2 [24]) [nM] | also measured
97A9 (VHH, Tested as periplasmic extract (pAX50) and as purified His6-tagged protein (pAX100); also called 097A09; not shown: C-terminal c-myc tag and His6 tag coded by the vector) VHH: EVQLVESGGGLVQPGGSLRLSCVASGSIVRINTMGWYRQTPGKQRELVADITSGGNINYIDAVKGRFTISRDNTKNTVYLQMNSLKPEDTAVYYCNAEIVVLVGVWTQRARTGNYWGQGTQVTVSS | 100 | 640 | 100 | 39.9 | 100 | 50.3 | 85.9 | > 100 | 48.5 | 11.6 | 0.8 | 53 | 64.1 | 93.9 | 17.2 | – | – | – | – | IC50 (Cynomolgus CXCR2 [6]): 63 nM; IC50 (Human CXCR2 [7]): 12 nM; FLIPR hGro-α IC50 (Cynomolgus CXCR2 [8]): 800 nM; FLIPR hGro-α IC50 (Human CXCR2 [9]): 94 nM
127D1 (VHH, Tested as periplasmic extract (pAX50) and as purified His6-tagged protein (pAX100); also called 127D01; not shown: C-terminal c-myc tag and His6 tag coded by the vector) VHH: EVQLVESGGGLVQAGESLRLSCAASGSTFDFKVMGWYRQPPGKQREGVAAIRLSGNMHYAESVKGRFTISKANAKNTVYLQMNSLRPEDTAVYYCKVNIRGQDYWGQGTQVTVSS | 100 | 753 | 100 | 21.9 | 66 | 12.5 | 46.7 | > 100 | 14 | 4.9 | 39.5 | 82.6 | 4.41 | 61.1 | 0.309 | – | – | – | – | IC50 (Cynomolgus CXCR2 [12]): 6.1 nM; IC50 (Human CXCR2 [13]): 0.55 nM; IC50 (M) at 5 nM GROα (inhibition of GRO-α, FIG. 2) (Human CXCR2 [14]): 1.64e-09 M; IC50 (M) at 15 nM GROα (inhibition of GRO-α, FIG. 2) (Human CXCR2 [14]): 2.04e-09 M; IC50 (M) at 45 nM GROα (inhibition of GRO-α, FIG. 2) (Human CXCR2 [14]): 3.26e-09 M; IC50 (M) at 150 nM GROα (inhibition of GRO-α, FIG. 2) (Human CXCR2 [14]): 4.6e-09 M; FLIPR hGro-α IC50 (Cynomolgus CXCR2 [15]): 1100 nM; FLIPR hGro-α IC50 (Human CXCR2 [16]): 15 nM
2B2 (VHH, Tested as periplasmic extract (pAX50) and as purified His6-tagged protein (pAX100); also called 002B02; not shown: C-terminal c-myc tag and His6 tag coded by the vector) VHH: EVQLVESGGELVQPGGSLRLSCAASGSILTINAMGWYRQAPGKQRELVVRRTRGGSTTYQDSVKGRFTISADIAKKTMYLQMNSLKPEDTAVYYCMLDDRGGVYWGQGTQVTVSS | 100 | 3850 | 100 | 441 | 71.3 | 103 | 38.1 | > 100 | 212 | 29.5 | 58.6 | 64 | 31.6 | 42.7 | 2.07 | – | – | – | – | IC50 (Cynomolgus CXCR2 [17]): 35 nM; IC50 (Human CXCR2 [18]): 1.3 nM; FLIPR hGro-α IC50 (Cynomolgus CXCR2 [19]): 24000 nM; FLIPR hGro-α IC50 (Human CXCR2 [20]): 650 nM
163D2 (VHH, Tested as periplasmic extract (pAX50) and as purified His6-tagged protein (pAX100); also called 163D02; not shown: C-terminal c-myc tag and His6 tag coded by the vector) VHH: EVQLVESGGGLVQAGGSLRLSCAASGRTFSDYAMGWFRQAPGKEREFVAAITWNGGRVFYTASVKGRFTISRDNAKNTMYLQMNSLKPEDTAVYYCAADKDRRTDYLGHPVAYWGQGTQVTVSS | 100 | 37.2 | 100 | 1.91 | 100 | 53.2 | 86.8 | > 100 | – | 6.6 | 0.5 | 91 | 14.8 | 96.4 | 6.95 | 92 | 66 | 7.1 | 2.8 | –
CXCR20086 (VHH) VHH: EVQLLESGGGLVQPGGSLRLSCAASGRTFSDYAMGWFRQAPGKEREFVAAITWNGGRVFYTASVKGRFTISRDNSKNTLYLQMNSLRPEDTAVYYCAADKDRRTDYLGHPVAYWGQGTLVTVSS | – | – | – | – | – | – | – | – | – | – | – | – | – | – | – | 85 | 73 | 4.8 | 2 | –
